{"source": "paper PMC2652713", "about": "“Molecular Blocking of CD23 Supports Its Role in the Pathogenesis of Arthritis” (PLoS ONE, 2009)", "origin": "cited, not measured here", "molecules": {"B1": {"name": "IL-10: a well-known immunoregulator and Th-1 inhibitor cytokine (protein, UniProt P22301 19-178, looked up)", "Interleukin-10": "SPGQGTQSENSCTHFPGNLPNMLRDLRDAFSRVKTFFQMKDQLDNLLLKESLLEDFKGYLGCQALSEMIQFYLEEVMPQAENQDPDIKAHVNSLGENLKTLRLRLRRCHRFLPCENKSKAVEQVKNAFNKLQEKGIYKAMSEFDIFINYIEAYMTMKIRN"}}, "test_system": "human macrophages and epithelial cells", "description": "Authors reported overexpression of membrane bound and sCD23 during acute juvenile or adult arthritis, with a clear pro-inflammatory property in this form. In the present study, we report similar observations in peripheral and synovial liquid monocytes/macrophages from adult arthritic patients (Figure 5)."}
{"molecule": "B1", "values": [{"measurement": "CD23-mediated TNF-α production", "value": "decreased"}, {"measurement": "CD23-mediated nitric oxide production", "value": "decreased"}]}
